Reference: PMC7572726

Key:
[1] = molecular target: TIR-only construct of SfSTING with the cyclic dinucleotide binding domain removed (ΔCDN) (Sphingobacterium faecium); assay: SEC-MALS
[2] = molecular target: Capnocytophaga granulosa STING (Capnocytophaga granulosa); assay: crystal structure
[3] = molecular target: SfSTING with the TIR domain removed (ΔTIR) (Sphingobacterium faecium); assay: SEC-MALS

In the case of “TIR-only construct of SfSTING with the cyclic dinucleotide binding domain removed (ΔCDN) (domain or fragment)”, the stoichiometry N [1] is reported as 2.
With “Capnocytophaga granulosa STING (from UniProt A0A381HAP5 151-314) (domain or fragment)” the stoichiometry N [2] was 2.
“SfSTING with the TIR domain removed (ΔTIR) (domain or fragment)” showed a stoichiometry N [3] of 2.
